Reference: paper PMC6430397, “The pharmacological properties of 3-arm or 4-arm DOTA constructs for conjugation to α-melanocyte-stimulating hormone analogues for melanoma imaging” (PLoS ONE, 2019)
Like-named read-outs stand apart in the source and are kept apart here.

Legend:
[1] = Partition coefficient, n-octanol / 0.1 M phosphate buffer; type: physicochemical; details: shake-flask, 2.0 mL n-octanol / 2.0 mL 0.1 M phosphate buffer pH 7.4, room temperature, 20 uL radioactive sample, mixed twice 1 min, radioactivity counting; mean ± SD; read-out: Partition coefficient, log (n-octanol/0.1 M phosphate buffer)
Protocol: The partition coefficients of ^111In-labeled 3-arm and 4-arm DOTA-α-MSH were measured using 2.0 mL n-octanol as the organic phase and 2.0 mL 0.l M phosphate buffer as the aqueous phase (pH 7.4 for plasma). N-octanol and the buffer were pre-mixed twice using a mechanical mixer for 1 min at room temperature. Then, 20 µL radioactive sample were added and mixed twice using a mechanical mixer for 1 min at room temperature. The radioactivity of 200 uL of each phase was measured after centrifugation. Calculation of log (n-octanol/0.l M phosphate buffer) was performed.

[2] = Biological distribution in B16-F1 melanoma-bearing mice; type: in vivo, mouse; details: male, C57BL6, mouse, in vivo, iv, 37 kBq/mouse, total radioactivity, mean, n = 3 mice; for tissue uptake at 10 min / tissue uptake dose at 10 min: 10 min after i.v. 37 kBq/mouse; for tissue uptake at 0.5 h / tissue uptake dose at 0.5 h: 30 min after i.v. 37 kBq/mouse; for tissue uptake at 1 h / tissue uptake dose at 1 h: 60 min after i.v. 37 kBq/mouse; for tissue uptake at 2 h / tissue uptake dose at 2 h: 120 min after i.v. 37 kBq/mouse; for tissue uptake at 3 h / tissue uptake dose at 3 h: 180 min after i.v. 37 kBq/mouse
Protocol: (§1) C57BL6 male mice (5 weeks old) were transplanted with B16-F1 cells (5 × 10^5 cells/100 μL) into the thigh of the mice. […] The mice were housed and continuously monitored each day for 2 weeks in a 12-hour light/12-hour dark cycle with free access to food and water. The tumor size reached 8.7 ± 2.8 mm at 2 weeks after transplant of cells. Two mice with tumor sizes of 13 and 15 mm were excluded from our experiments. Mice with a tumor size <10 mm were fasted with no food overnight with water supplied ad libitum before experiments.
(§2) For biological distribution studies, B16-F1-bearing mice were administered ^111In-labeled 3-arm or 4-arm DOTA-α-MSH via the tail vein (37 kBq/mouse). At 10, 30, 60, 120, and 180 min after injection, the mice were euthanized under isoflurane (n = 3 per time point), and the following tissues were collected: brain, lung, heart, stomach, liver, small intestine, large intestine, kidney, blood, muscle, and B16-F1 melanoma. Tissues were weighed, and radioactivity was quantified using an automated γ-ray counter to calculate the percent injected dose (%ID) or percent injected dose per gram of tissue (%ID/g).
(§3) For SPECT imaging, ^111In-labeled 3-arm or 4-arm DOTA-α-MSH was injected into the tail vein of four B16-F1-bearing mice in total (37 MBq/mouse). For SPECT imaging, acquisition was started at 10 min after injection and continued every 10 min for 180 min. The data were reconstructed using the ordered subset expectation maximization method with 16 subsets and six iterations including no scatter and attenuation correction. The voxel size was set to 0.8×0.8×0.8 mm. Post-reconstruction smoothing filtering was applied using a 1.0-mm Gaussian filter. […] In these images, three to five regions of interest were placed over the kidney, muscle, and B16-F1 melanoma in which accumulation could be seen, and the time activity curve of each was obtained as the %ID/g.

[3] = system: B16-F1 melanoma-bearing mice; experiment: as above; type: in vivo, mouse; details: for Melanoma-to-blood ratio / Melanoma-to-kidney ratio / Melanoma-to-muscle ratio: mean ± SD, four mice
Protocol: as §1, §2, §3

[4] = Stability analysis in plasma, liver and kidney of mice, ex vivo TLC; set-up: species or system mouse; details: γ-counter, mean ± SD, n = 3 mice
[5] = read-out: Biological distribution, Blood
[6] = read-out: Biological distribution, Brain
[7] = read-out: Biological distribution, Heart
[8] = read-out: Biological distribution, Kidney
[9] = read-out: Biological distribution, Large intestine
[10] = read-out: Biological distribution, Liver
[11] = read-out: Biological distribution, Lung
[12] = read-out: Biological distribution, Muscle
[13] = read-out: Biological distribution, Small intestine
[14] = read-out: Biological distribution, Stomach
[15] = B16-F1 melanoma, read-out: Biological distribution, Melanoma
[16] = average over all acquisition time points

CSCC[C@H](NC(=O)[C@H](CO)NC(=O)[C@H](Cc1ccc(O)cc1)NC(=O)[C@H](CO)NC(C)=O)C(=O)N[C@@H](CCC(=O)O)C(=O)N[C@@H](Cc1c[nH]cn1)C(=O)N[C@@H](Cc1ccccc1)C(=O)N[C@@H](CCCNC(=N)N)C(=O)N[C@@H](Cc1c[nH]c2ccccc12)C(=O)NCC(=O)N[C@@H](CCCCNC(=S)Nc1ccc(C[C@H]2CN(CC(=O)O)CCN(CC(=O)O)CCN(CC(=O)O)CCN2CC(=O)O)cc1)C(=O)N1CCC[C@H]1C(=O)N[C@H](C(=O)O)C(C)C [^111In-labeled 4-arm DOTA-α-MSH, metal not drawn]
logD [1]: -0.13 ± 0.04 | tissue uptake at 10 min [2, 5]: 4.03 %ID/g | tissue uptake at 10 min [2, 6]: 0.04 %ID/g | tissue uptake at 10 min [2, 7]: 0.55 %ID/g | tissue uptake at 10 min [2, 8]: 17.1 %ID/g | tissue uptake dose at 10 min [2, 9]: 0.03 %ID | tissue uptake at 10 min [2, 10]: 2.52 %ID/g | tissue uptake at 10 min [2, 11]: 0.42 %ID/g | tissue uptake at 10 min [2, 12]: 0.1 %ID/g | tissue uptake dose at 10 min [2, 13]: 0.05 %ID | tissue uptake dose at 10 min [2, 14]: 0.09 %ID | tissue uptake at 0.5 h [2, 5]: 2.02 %ID/g | tissue uptake at 0.5 h [2, 6]: 0.03 %ID/g | tissue uptake at 0.5 h [2, 7]: 0.46 %ID/g | tissue uptake at 0.5 h [2, 8]: 13.3 %ID/g | tissue uptake dose at 0.5 h [2, 9]: 0.03 %ID | tissue uptake at 0.5 h [2, 10]: 1.45 %ID/g | tissue uptake at 0.5 h [2, 11]: 0.52 %ID/g | tissue uptake at 0.5 h [2, 12]: 0.12 %ID/g | tissue uptake dose at 0.5 h [2, 13]: 0.04 %ID | tissue uptake dose at 0.5 h [2, 14]: 0.09 %ID | tissue uptake at 1 h [2, 5]: 1.01 %ID/g | tissue uptake at 1 h [2, 6]: 0.03 %ID/g | tissue uptake at 1 h [2, 7]: 0.38 %ID/g | tissue uptake at 1 h [2, 8]: 8.12 %ID/g | tissue uptake dose at 1 h [2, 9]: 0.04 %ID | tissue uptake at 1 h [2, 10]: 1.18 %ID/g | tissue uptake at 1 h [2, 11]: 0.22 %ID/g | tissue uptake at 1 h [2, 12]: 0.08 %ID/g | tissue uptake dose at 1 h [2, 13]: 0.03 %ID | tissue uptake dose at 1 h [2, 14]: 0.08 %ID | tissue uptake at 2 h [2, 5]: 0.11 %ID/g | tissue uptake at 2 h [2, 6]: 0.02 %ID/g | tissue uptake at 2 h [2, 7]: 0.14 %ID/g | tissue uptake at 2 h [2, 8]: 6.31 %ID/g | tissue uptake dose at 2 h [2, 9]: 0.03 %ID | tissue uptake at 2 h [2, 10]: 0.9 %ID/g | tissue uptake at 2 h [2, 11]: 0.13 %ID/g | tissue uptake at 2 h [2, 12]: 0.04 %ID/g | tissue uptake dose at 2 h [2, 13]: 0.02 %ID | tissue uptake dose at 2 h [2, 14]: 0.05 %ID | tissue uptake at 3 h [2, 5]: 0.03 %ID/g | tissue uptake at 3 h [2, 6]: 0.01 %ID/g | tissue uptake at 3 h [2, 7]: 0.05 %ID/g | tissue uptake at 3 h [2, 8]: 5.19 %ID/g | tissue uptake dose at 3 h [2, 9]: 0.03 %ID | tissue uptake at 3 h [2, 10]: 0.61 %ID/g | tissue uptake at 3 h [2, 11]: 0.06 %ID/g | tissue uptake at 3 h [2, 12]: 0.03 %ID/g | tissue uptake dose at 3 h [2, 13]: 0.02 %ID | tissue uptake dose at 3 h [2, 14]: 0.05 %ID | tissue uptake at 10 min [2, 15]: 2.22 %ID/g | tissue uptake at 0.5 h [2, 15]: 2.25 %ID/g | tissue uptake at 1 h [2, 15]: 3.34 %ID/g | tissue uptake at 2 h [2, 15]: 4.52 %ID/g | tissue uptake at 3 h [2, 15]: 4.83 %ID/g | Melanoma-to-blood ratio ([3]; 10 min after injection): 0.55 ± 0.14 | Melanoma-to-kidney ratio ([3]; 10 min after injection): 0.13 ± 0.07 | Melanoma-to-muscle ratio ([3]; 10 min after injection): 22.20 ± 3.35 | Melanoma-to-blood ratio ([3]; 30 min after injection): 1.11 ± 0.28 | Melanoma-to-kidney ratio ([3]; 30 min after injection): 0.17 ± 0.11 | Melanoma-to-muscle ratio ([3]; 30 min after injection): 18.75 ± 4.45 | Melanoma-to-blood ratio ([3]; 60 min after injection): 3.31 ± 0.35 | Melanoma-to-kidney ratio ([3]; 60 min after injection): 0.41 ± 0.15 | Melanoma-to-muscle ratio ([3]; 60 min after injection): 41.75 ± 6.38 | Melanoma-to-blood ratio ([3]; 120 min after injection): 41.09 ± 4.78 | Melanoma-to-kidney ratio ([3]; 120 min after injection): 0.72 ± 0.18 | Melanoma-to-muscle ratio ([3]; 120 min after injection): 113.00 ± 7.33 | Melanoma-to-blood ratio ([3]; 180 min after injection): 155.81 ± 12.93 | Melanoma-to-kidney ratio ([3]; 180 min after injection): 0.93 ± 0.15 | Melanoma-to-muscle ratio ([3]; 180 min after injection): 155.81 | Melanoma-to-muscle ratio ([3]; 180 min after injection, listed as 4-arm DOTA-α-MSH): 155.81 ± 8.63 | Higher average accumulation in B16-F1 melanoma than 111In-labeled 3-arm DOTA-α-MSH [3, 16]: 1.32 fold | Lower average accumulation in kidney than 111In-labeled 3-arm DOTA-α-MSH [3, 16]: 1.38 fold | Fraction ratio of intact radiotracer, Kidney (%) ([4]; 10 min after i.v. injection 3.7 MBq/mouse): 96.1 ± 2.0% | Fraction ratio of intact radiotracer, Kidney (%) ([4]; 60 min after i.v. injection 3.7 MBq/mouse): 93.3 ± 3.5% | Fraction ratio of intact radiotracer, Kidney (%) ([4]; 120 min after i.v. injection 3.7 MBq/mouse): 84.5 ± 3.3% | Fraction ratio of intact radiotracer, Kidney (%) ([4]; 180 min after i.v. injection 3.7 MBq/mouse): 80.5 ± 2.8%
